{"source": "patent US20260077065A1", "about": "“Compositions and Methods for Assessing Kinase Activity” (The Board of Trustees of the Leland Stanford Junior …, priority 2022, published 2026)", "key": {"[1]": {"target": "ERK substrate (Cdc25C substrate sequence with second phosphorylation site, V-3S)", "test": "cell-based or functional assay"}, "[2]": {"target": "SmBiT(ΔC3) (NanoBiT small fragment truncated by 3 amino acids at the C-terminus)", "test": "cell-based or functional assay"}}}
{"substance": "WW phospho-binding domain with F25A mutation (from UniProt Q13526 1-54)", "values": [{"measurement": "induction of luminescence by Vx-11e (bKiMBI)", "setting": "[1]", "result": "> 10", "unit": "fold"}]}
{"substance": "LgBiT (NanoBiT large fragment of NanoLuc), ΔN2 (enzyme)", "values": [{"measurement": "response (luminescence induction by ERK inhibition) of the reporter with truncated SmBiT", "setting": "[2]", "result": 300, "unit": "%"}]}
{"substance": "WW phospho-binding domain (proline-directed WW phospho-binding domain from Pin1) (from UniProt Q13526 1-54)", "values": [{"measurement": "induction of luminescence (ΔC3 V-3S)", "setting": "[1]", "result": 8.8, "unit": "fold"}]}
